Laboratory results from US20030028924.

Assays:
[1] = biological target: T1, Purified oat phytochrome A, autophosphorylated in the presence of gamma-[32P]ATP, P06593
T1 chain: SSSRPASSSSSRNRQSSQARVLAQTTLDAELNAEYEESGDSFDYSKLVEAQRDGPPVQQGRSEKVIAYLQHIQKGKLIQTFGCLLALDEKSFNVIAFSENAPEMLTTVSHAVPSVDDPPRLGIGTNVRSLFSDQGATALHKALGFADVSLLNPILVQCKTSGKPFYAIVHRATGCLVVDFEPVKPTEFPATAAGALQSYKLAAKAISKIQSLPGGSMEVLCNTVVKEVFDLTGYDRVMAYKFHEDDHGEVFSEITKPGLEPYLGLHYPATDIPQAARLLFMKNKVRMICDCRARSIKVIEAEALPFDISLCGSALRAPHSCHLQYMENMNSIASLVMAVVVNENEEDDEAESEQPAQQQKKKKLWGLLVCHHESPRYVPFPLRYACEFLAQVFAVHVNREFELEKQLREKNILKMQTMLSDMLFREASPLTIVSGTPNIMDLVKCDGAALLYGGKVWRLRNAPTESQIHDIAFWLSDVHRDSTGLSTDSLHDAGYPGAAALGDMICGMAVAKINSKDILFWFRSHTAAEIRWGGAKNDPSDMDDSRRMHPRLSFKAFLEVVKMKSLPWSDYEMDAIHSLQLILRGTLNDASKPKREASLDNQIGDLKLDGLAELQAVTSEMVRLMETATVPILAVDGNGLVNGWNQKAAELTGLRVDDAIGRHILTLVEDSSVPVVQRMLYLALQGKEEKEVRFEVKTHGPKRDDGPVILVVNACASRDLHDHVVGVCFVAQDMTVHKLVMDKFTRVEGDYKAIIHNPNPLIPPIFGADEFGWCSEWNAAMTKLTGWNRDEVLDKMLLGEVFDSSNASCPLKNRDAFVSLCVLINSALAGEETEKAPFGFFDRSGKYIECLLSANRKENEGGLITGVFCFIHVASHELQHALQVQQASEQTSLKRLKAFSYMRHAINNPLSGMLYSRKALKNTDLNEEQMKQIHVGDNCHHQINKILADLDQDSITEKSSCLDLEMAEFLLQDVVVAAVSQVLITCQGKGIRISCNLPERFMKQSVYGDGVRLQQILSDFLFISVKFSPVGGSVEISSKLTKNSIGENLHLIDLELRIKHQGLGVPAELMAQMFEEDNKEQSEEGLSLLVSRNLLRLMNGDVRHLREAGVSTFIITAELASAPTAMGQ

[2] = biological target: T2, Purified oat phytochrome A, Pr spectral form, autophosphorylated, P06593
T2 chain: T1 chain

[3] = biological target: T3, Purified oat phytochrome A, Pfr spectral form, autophosphorylated, P06593
T3 chain: T1 chain

B1: Recombinant PP2AC-JD protein expressed in E. coli BL21 from pGEX-4T-1 as a GST fusion, GST tag removed by thrombin (protein)
chain: DLDQWISKVKDGQHLLEDELQLLCEYVKEILIEESNVQPVNSPVTVCGDIHGQFHDLMKLFQTGGHVPETNYIFMGDFVDRGYNSLDVFTILLLLKARYPANITLLRGNHESRQLTQVYGFYDECQRKYGNANATRYCTDVFDYLTLSAIIDGTVLCVHGGLSPDIRTIDQIRVIERNCEIPHEGPFCDLMWSDPEDIETWAVSPRGAGWLFGSRVTSEFNHINNLDLVCRAHQLVQEGLKYMFQDKGLVTVWSAPNYCYRCGNVASILSFNENMEREVKFFTETEENNQMRGPRTGVPYFL
dephosphorylation of 32P-autophosphorylated phytochrome A (SDS-PAGE, autoradiography) [1]: efficiently dephosphorylated by the PP2AC-JD only in the presence of Fe^2+ or Zn^2+ | dephosphorylation of 32P-autophosphorylated phytochrome A (SDS-PAGE, autoradiography) [2]: The Pfr phytochrome A was more efficiently dephosphorylated by the PP2AC-JD than the Pr spectral form | dephosphorylation of 32P-autophosphorylated phytochrome A (SDS-PAGE, autoradiography) [3]: more efficiently dephosphorylated by the PP2AC-JD than the Pr spectral form
